Experimental data: article PMC8524320
No end group written: not given here. *: point of attachment. TAMRA = 5-carboxytetramethylrhodamine, CN(C)c1ccc2c(-c3ccc(C(=O)*)cc3C(=O)[O-])c3ccc(N(C)C)cc3[o+]c2c1

How the values were obtained:
[1] = target: HLA-A*68:02^WT on the surface of HeLaM-HLA-ABC^KO cells (human); experiment: flow cytometry on cells; competition: surface MHC-I pre-loaded with 10 nM fluorescent peptide in the presence of TAPBPR (100 nM for HLA-A*68:02 WT, 10 nM for N86Q and S88R), washed, then 0, 100 nM or 1000 nM recombinant TAPBPR for 30 min; loss of bound peptide against no TAPBPR
[2] = target: HLA-A*68:02^N86Q on the surface of HeLaM-HLA-ABC^KO cells (human); experiment: as above
[3] = target: HLA-A*68:02^S88R on the surface of HeLaM-HLA-ABC^KO cells (human); experiment: as above
[4] = target: HLA-A*68:02^WT on the surface of HeLaM-HLA-ABC^KO cells (human); experiment: flow cytometry on cells; competition: cells treated with 1 μM soluble TAPBPR for 30 min at 37 °C, washed, then 0, 10 nM or 100 nM high-affinity peptide for 15 min (methods: 30 min); loss of bound TAPBPR (PeTe-4) against no peptide
[5] = target: HLA-A*68:02^N86Q on the surface of HeLaM-HLA-ABC^KO cells (human); experiment: as above
[6] = target: HLA-A*68:02^S88R on the surface of HeLaM-HLA-ABC^KO cells (human); experiment: as above

Molecule “recombinant soluble TAPBPR^WT (lumenal domains, C-terminal His6) (from UniProt Q9BX59 19-405) (domain or fragment)” has a % of pre-loaded ETVSK*QSNV dissociated by 1 μM TAPBPR [1] of 30%, a % loss of pre-loaded YVVPFVAK*V in the presence of TAPBPR (up to) [2] of 30% and a % of pre-loaded ETVSK*QSNV dissociated by 100 nM TAPBPR [2] of 50%. The % of pre-loaded ETVSK*QSNV dissociated by 1 μM TAPBPR [2] was 85%, the % loss of pre-loaded YVVPFVAK*V in the presence of TAPBPR (up to) [3] was 50% and the % of pre-loaded ETVSK*QSNV dissociated by 100 nM TAPBPR [3] was 75%. For the same molecule, the % of pre-loaded ETVSK*QSNV dissociated by 1 μM TAPBPR [3] was over 90%.

YVVPFVAK(TAMRA)V [YVVPFVAK*V (TAMRA-labelled peptide specific for HLA-A*68:02)] was tested, and the % of bound TAPBPR displaced by the peptide [4] was 92%, the % of bound TAPBPR displaced by the peptide [5] was 86% and the % of bound TAPBPR displaced by the peptide [6] was 83%.

With ETVSK(TAMRA)QSNV [ETVSK*QSNV (TAMRA-labelled peptide specific for HLA-A*68:02)] the % of bound TAPBPR dissociated by the peptide [4] was 85%, the % of bound TAPBPR dissociated by the peptide [5] was 70% and the % of bound TAPBPR dissociated by the peptide [6] was 60%.
